Changes are numbered by the printed parent chain. Names may count otherwise. Blank lines part the entries; values can stand above or below the binder they belong to.
Target: binding partner of C5A (XPA23)
Assay: Biacore K-off

fold difference in affinity vs original: 0.88 fold
B1: C5A (XPA23) VL P95E (antibody, V domains shown)
VH: EVQLLESGGGLVQPGGSLRLSCAASGFTFSKYFMFWVRQAPGKGLEWVSVISPSGGMTRYADSVKGRFTISRDNSKNTLYLQMNSLRAEDTAVYYCARVGYGGNSDYWGQGTLVTVSS
VL: DIQMTQSPSSVSASVGDRLTIICRASQDINRWLAWYQQTPGNAPKLLIHSATSLQSGVPSRFSGSGSGTDFTLTINSLQPEDFATYYCQQADSFELTFGGGTKVEIK

fold difference in affinity vs original: 8.48 fold
B2: C5A (XPA23) VL R31A (antibody, V domains shown)
VH: B1 VH
VL: B1 VL with R31A, E95P

fold difference in affinity vs original: 3.84 fold
B3: C5A (XPA23) VL A51G (antibody, V domains shown)
VH: B1 VH
VL: B1 VL with A51G, E95P

fold difference in affinity vs original: 0.21 fold
B4: C5A (XPA23) VL H49W (antibody, V domains shown)
VH: B1 VH
VL: B1 VL with H49W, E95P

fold difference in affinity vs original: 0.71 fold
B5: C5A (XPA23) VL N30G (antibody, V domains shown)
VH: B1 VH
VL: B1 VL with N30G, E95P

fold difference in affinity vs original: 9.64 fold
B6: C5A (XPA23) VL D28L (antibody, V domains shown)
VH: B1 VH
VL: B1 VL with D28L, E95P

fold difference in affinity vs original: 0.43 fold
B7: C5A (XPA23) VL R31W (antibody, V domains shown)
VH: B1 VH
VL: B1 VL with R31W, E95P

fold difference in affinity vs original: 0.31 fold
B8: C5A (XPA23) VL A51V (antibody, V domains shown)
VH: B1 VH
VL: B1 VL with A51V, E95P

fold difference in affinity vs original: 0.92 fold
B9: C5A (XPA23) VL R31G (antibody, V domains shown)
VH: B1 VH
VL: B1 VL with R31G, E95P

fold difference in affinity vs original: 0.65 fold
B10: C5A (XPA23) VL N30I (antibody, V domains shown)
VH: B1 VH
VL: B1 VL with N30I, E95P

fold difference in affinity vs original: 1.47 fold
B11: C5A (XPA23) VL Q27A (antibody, V domains shown)
VH: B1 VH
VL: B1 VL with Q27A, E95P

fold difference in affinity vs original: 1.21 fold
B12: C5A (XPA23) VL D28G (antibody, V domains shown)
VH: B1 VH
VL: B1 VL with D28G, E95P

fold difference in affinity vs original: 1.06 fold
B13: C5A (XPA23) VL N30W (antibody, V domains shown)
VH: B1 VH
VL: B1 VL with N30W, E95P

fold difference in affinity vs original: 0.92 fold
B14: C5A (XPA23) VL R31F (antibody, V domains shown)
VH: B1 VH
VL: B1 VL with R31F, E95P

fold difference in affinity vs original: 1.17 fold
B15: C5A (XPA23) VL D28P (antibody, V domains shown)
VH: B1 VH
VL: B1 VL with D28P, E95P

fold difference in affinity vs original: 0.21 fold
B16: C5A (XPA23) VL S50V (antibody, V domains shown)
VH: B1 VH
VL: B1 VL with S50V, E95P

fold difference in affinity vs original: 1.43 fold
B17: C5A (XPA23) VL D28F (antibody, V domains shown)
VH: B1 VH
VL: B1 VL with D28F, E95P

fold difference in affinity vs original: 0.51 fold
B18: C5A (XPA23) VL R31L (antibody, V domains shown)
VH: B1 VH
VL: B1 VL with R31L, E95P

fold difference in affinity vs original: 0.07 fold
B19: C5A (XPA23) VL L96H (antibody, V domains shown)
VH: B1 VH
VL: B1 VL with E95P, L96H

fold difference in affinity vs original: 0.21 fold
B20: C5A (XPA23) VL L96Q (antibody, V domains shown)
VH: B1 VH
VL: B1 VL with E95P, L96Q

fold difference in affinity vs original: 0.5 fold
B21: C5A (XPA23) VL H49F (antibody, V domains shown)
VH: B1 VH
VL: B1 VL with H49F, E95P

fold difference in affinity vs original: 0.23 fold
B22: C5A (XPA23) VL L96S (antibody, V domains shown)
VH: B1 VH
VL: B1 VL with E95P, L96S

fold difference in affinity vs original: 0.49 fold
B23: C5A (XPA23) VL S50L (antibody, V domains shown)
VH: B1 VH
VL: B1 VL with S50L, E95P

fold difference in affinity vs original: 0.61 fold
B24: C5A (XPA23) VL N30A (antibody, V domains shown)
VH: B1 VH
VL: B1 VL with N30A, E95P

fold difference in affinity vs original: 0.82 fold
B25: C5A (XPA23) VL Q27I (antibody, V domains shown)
VH: B1 VH
VL: B1 VL with Q27I, E95P

fold difference in affinity vs original: 0.88 fold
B26: C5A (XPA23) VL D28A (antibody, V domains shown)
VH: B1 VH
VL: B1 VL with D28A, E95P

fold difference in affinity vs original: 0.85 fold
B27: C5A (XPA23) VL D28V (antibody, V domains shown)
VH: B1 VH
VL: B1 VL with D28V, E95P

fold difference in affinity vs original: 0.14 fold
B28: C5A (XPA23) VL S50G (antibody, V domains shown)
VH: B1 VH
VL: B1 VL with S50G, E95P

fold difference in affinity vs original: 4.05 fold
B29: C5A (XPA23) VL P95S (antibody, V domains shown)
VH: B1 VH
VL: B1 VL with E95S

fold difference in affinity vs original: 0.69 fold
B30: C5A (XPA23) VL N30P (antibody, V domains shown)
VH: B1 VH
VL: B1 VL with N30P, E95P

fold difference in affinity vs original: 0.86 fold
B31: C5A (XPA23) VL H49P (antibody, V domains shown)
VH: B1 VH
VL: B1 VL with H49P, E95P

fold difference in affinity vs original: 0.83 fold
B32: C5A (XPA23) VL Q27L (antibody, V domains shown)
VH: B1 VH
VL: B1 VL with Q27L, E95P

fold difference in affinity vs original: 0.44 fold
B33: C5A (XPA23) VL R31V (antibody, V domains shown)
VH: B1 VH
VL: B1 VL with R31V, E95P

fold difference in affinity vs original: 1.59 fold
B34: C5A (XPA23) VL N30F (antibody, V domains shown)
VH: B1 VH
VL: B1 VL with N30F, E95P

fold difference in affinity vs original: 0.07 fold
B35: C5A (XPA23) VL H49L (antibody, V domains shown)
VH: B1 VH
VL: B1 VL with H49L, E95P

fold difference in affinity vs original: 0.06 fold
B36: C5A (XPA23) VL L96N (antibody, V domains shown)
VH: B1 VH
VL: B1 VL with E95P, L96N

fold difference in affinity vs original: 0.02 fold
B37: C5A (XPA23) VL S50W (antibody, V domains shown)
VH: B1 VH
VL: B1 VL with S50W, E95P

fold difference in affinity vs original: 0.13 fold
B38: C5A (XPA23) VL S50A (antibody, V domains shown)
VH: B1 VH
VL: B1 VL with S50A, E95P

fold difference in affinity vs original: 0.89 fold
B39: C5A (XPA23) VL N30V (antibody, V domains shown)
VH: B1 VH
VL: B1 VL with N30V, E95P

fold difference in affinity vs original: 0.25 fold
B40: C5A (XPA23) VL S50I (antibody, V domains shown)
VH: B1 VH
VL: B1 VL with S50I, E95P

fold difference in affinity vs original: 0.68 fold
B41: C5A (XPA23) VL N30L (antibody, V domains shown)
VH: B1 VH
VL: B1 VL with N30L, E95P

fold difference in affinity vs original: 0.23 fold
B42: C5A (XPA23) VL H49A (antibody, V domains shown)
VH: B1 VH
VL: B1 VL with H49A, E95P

fold difference in affinity vs original: 0.68 fold
B43: C5A (XPA23) VL R31I (antibody, V domains shown)
VH: B1 VH
VL: B1 VL with R31I, E95P

fold difference in affinity vs original: 0.06 fold
B44: C5A (XPA23) VL L96T (antibody, V domains shown)
VH: B1 VH
VL: B1 VL with E95P, L96T

fold difference in affinity vs original: 2.96 fold
B45: C5A (XPA23) VL Q27F (antibody, V domains shown)
VH: B1 VH
VL: B1 VL with Q27F, E95P

fold difference in affinity vs original: 3.81 fold
B46: C5A (XPA23) VL D28W (antibody, V domains shown)
VH: B1 VH
VL: B1 VL with D28W, E95P
